The values below come from patent publication US20110294728.

In general, IC50 refers to the point on the concentration scale where inhibition reaches its midpoint. Lower therefore signals higher potency.

The target of data set [1] is monomeric p51 subunit of HIV-1 RT (UniProt P03366). Briefly: stopped-flow, FRET between Trp of RT and bis-ANS, RT incubated with PAW.
For data set [2] the target is unchanged. Briefly: stopped-flow, FRET between Trp of RT and bis-ANS, without PAW.
Another data set relates to HIV-1 integrase (HIV-1). In words: FP.

Where two headings read alike, the source gives them in different places.

For monomeric p66 subunit of HIV-1 RT, the entries for the “kdis (dissociation rate constant of the RT heterodimer in 10% acetonitrile)” value in data set [1] and in data set [2] were “kdis=1.42±0.007 s^-1” and “a dissociation rate constant kdis of 5.30±0.01 s^-1”, respectively.

On to 21-mer U5 LTR end oligonucleotide, for which the half-maximal inhibitory concentration (IC50) with HIV-1 integrase (HIV-1) is 15.2 µM; with HIV-1 integrase (HIV-1) (3'-processing active, value is IC50 of PAW peptide, 10 mM MgCl2, 37 C) it was 12.7 µM.
